One data set has as its target T1, HP0593 MTase (Helicobacter pylori, UniProt O25315).
T1 construct: gene HP_0593; full-length, 1797 bp gene in pET14b (NdeI/BamHI), N-terminal His6 tag kept, E. coli BL21(DE3) pLysS; monomer and dimer in solution, functions as dimer
T1 sequence (O25315 1-598): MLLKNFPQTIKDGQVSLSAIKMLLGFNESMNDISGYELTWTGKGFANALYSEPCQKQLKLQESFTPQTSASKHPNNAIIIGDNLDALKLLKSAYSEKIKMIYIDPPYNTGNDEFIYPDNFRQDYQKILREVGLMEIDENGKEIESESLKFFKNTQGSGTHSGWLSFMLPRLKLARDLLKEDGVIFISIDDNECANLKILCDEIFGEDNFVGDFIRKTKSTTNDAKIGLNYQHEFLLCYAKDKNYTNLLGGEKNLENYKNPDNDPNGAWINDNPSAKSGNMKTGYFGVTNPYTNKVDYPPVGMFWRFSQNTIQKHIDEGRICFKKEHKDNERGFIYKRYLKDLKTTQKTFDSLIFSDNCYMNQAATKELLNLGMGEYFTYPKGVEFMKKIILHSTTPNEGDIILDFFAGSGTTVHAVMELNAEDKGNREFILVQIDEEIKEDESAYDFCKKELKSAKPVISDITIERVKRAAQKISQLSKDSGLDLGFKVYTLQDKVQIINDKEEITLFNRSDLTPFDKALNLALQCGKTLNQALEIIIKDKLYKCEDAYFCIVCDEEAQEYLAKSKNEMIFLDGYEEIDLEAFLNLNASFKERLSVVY
The data set is described as follows: EMSA of enzyme with […]-labelled duplex […] DNA. It counts as binding. To be noted: on ice, no divalent metal, ternary complex with cognate DNA, indirect read-out.

Data set [1] deals with HP0593 DNA-(N6-adenine)-methyltransferase (Helicobacter pylori 26695). The experiment in a line: SEC.
Data set [2] shares this target. The experiment in a line: cross-linking.
Data set [3] has the same target. The data set is described as follows: cross-linking; 0.06% and 0.08% glutaraldehyde-treated HP0593 MTase, products analysed by MALDI-MS; data not shown.
For data set [4] the target is unchanged. The data set is described as follows: SEC; reinjection of the dimer peak of the gel filtration; data not shown. On the technique in general: SEC sorts molecules by how far they enter the pores of the column.
The target in data set [5] is T2, HP0593 DNA-(N6-adenine)-methyltransferase (HP0593 MTase) (Helicobacter pylori 26695, UniProt O25315 1-598).
T2 sequence: T1 sequence (O25315 1-598)
The experiment in a line: SPR; 1.0 mM MnCl2; EMSA: 10 mM potassium phosphate pH 5.5, 7 mM β-mercaptoethanol, 10% glycerol, no divalent metal, 10 min on ice, 0.5-5.0 µM protein, ~100 nM DNA, gel 0.5x TBE 4°C; SPR: 10 mM HEPES pH 7.4, 100 mM NaCl, 0.05% P-20, ±1.0 mM MnCl2, 25°C, 1:1 Langmuir global fit. To be noted: protein: recombinant; tags: N-terminal His6 (pET14b); label: 5' biotin on top strand, immobilized on SA chip; blunt. Background: SPR reads the build-up and loss of mass on a sensor chip optically.

Data set [6] deals with T2, HP0593 …. The data set is described as follows: EMSA; no cofactor; up to 3.0 µM protein; EMSA: 10 mM potassium phosphate pH 5.5, 7 mM β-mercaptoethanol, 10% glycerol, no divalent metal, 10 min on ice, 0.5-5.0 µM protein, ~100 nM DNA, gel 0.5x TBE 4°C; SPR: 10 mM HEPES pH 7.4, 100 mM NaCl, 0.05% P-20, ±1.0 mM MnCl2, 25°C, 1:1 Langmuir global fit. Particulars: protein: recombinant; tags: N-terminal His6 (pET14b); label: 32P; blunt. (In general: Mobility shift assays separate free from complexed probe on a gel.)

For `Nc1ncnc2c1ncn2[C@@H]1O[C@H](CSCC[C@H](N)C(=O)O)[C@@H](O)[C@H]1O` [AdoHcy], on HP0593 MTase (5 µM AdoHcy, 10 mM potassium phosphate pH 5.5), the “EMSA of enzyme with 32P-labelled duplex 2 DNA” value was “This suggested the formation of a stable ternary complex in the presence of AdoHcy”.
As for `Nc1ncnc2c1ncn2[C@@H]1O[C@H](C[C@@H](N)CC[C@H](N)C(=O)O)[C@@H](O)[C@H]1O` [sinefungin], at HP0593 MTase (10 µM sinefungin, pH 5.5), the “EMSA of enzyme with 32P-labelled duplex 2 DNA” value was “which is stabilized by AdoHcy and in some extent by sinefungin”.
A word on the stoichiometry N: it is a count of units in the complex or per binding partner. Consider “HP0593 DNA-(N6-adenine)-methyltransferase (enzyme)”, for which the stoichiometry N in data set [1], in data set [2], in data set [3] and in data set [4] was 2 each time.

B1: duplex 18 (dsDNA)
DNA 1: GATCAATAGATGCGCAGATCATTTACATT
DNA 2: AATGTAAATGATCTGCGCATCTATTGATC
What is called Kd is the free concentration of one partner at which half of the binding sites on the other are occupied at equilibrium, for simple one-to-one binding. As for B1, the Kd in data set [5] was found to be 4.58 nM.

B2: duplex 19 (lacks GCAG) (dsDNA)
DNA 1: GATCAATAGATCCCCGGATCATTTACATT
DNA 2: AATGTAAATGATCCGGGGATCTATTGATC
B2: in data set [6], the binding result is given as “no binding”.
